From publication PMC10830566 (2024)

Assays:
[1] = molecular target: T1, endothelial protein C receptor (EPCR), extracellular region, with a C-terminal 12xHis tag (human, UniProt Q9UNN8 18-210); assay: BLI
T1 chain: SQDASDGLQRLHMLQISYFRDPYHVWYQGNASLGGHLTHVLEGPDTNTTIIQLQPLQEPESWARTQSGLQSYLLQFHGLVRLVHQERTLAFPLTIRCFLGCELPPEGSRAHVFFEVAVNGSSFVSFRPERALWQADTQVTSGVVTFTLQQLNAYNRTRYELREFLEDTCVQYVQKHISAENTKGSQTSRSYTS

[2] = molecular target: T1, endothelial protein C receptor (EPCR), …; assay: BLI

Kd [1]: 67 nM
koff [2]: 0.0021 s⁻¹
B1: activated protein C (APC) (enzyme)
chain 1: ANSFLEELRHSSLERECIEEICDFEEAKEIFQNVDDTLAFWSKHVDGDQCLVLPLEHPCASLCCGHGTCIDGIGSFSCDCRSGWEGRFCQREVSFLNCSLDNGGCTHYCLEEVGWRRCSCAPGYKLGDDLLQCHPAVKFPCGRPWKRMEKKRSHL
chain 2: LIDGKMTRRGDSPWQVVLLDSKKKLACGAVLIHPSWVLTAAHCMDESKKLLVRLGEYDLRRWEKWELDLDIKEVFVHPNYSKSTTDNDIALLHLAQPATLSQTIVPICLPDSGLAERELNQAGQETLVTGWGYHSSREKEAKRNRTFVLNFIKIPVVPHNECSEVMSNMVSENMLCAGILGDRQDACEGDSGGPMVASFHGTWFLVGLVSWGEGCGLLHNYGVYTKVSRYLDWIHGHIRDKEAPQKSWAP
modifications: gamma-carboxyglutamate in the Gla domain of the light chain (incl. Gla7 = precursor 49); light and heavy chains disulfide-linked; activation peptide 200-211 and Lys-Arg 198-199 removed …; chain limits taken from the UniProt features
